Article PMC3316571

Target: Notch-1 (endogenous; p300 or p120 not told) (human (endogenous in HeLa and BxPC3)) (UniProt P46531)
Experiment: co-IP; HA-tagged c-Src wild type, Y416F or Y527F transiently transfected in HeLa; whole-cell lysate, IP with anti-Notch-1, blot with anti-HA and anti-Notch-1

- fold reduction of binding against wild type c-Src: > 3 fold
Substance: HA-tagged c-Src Y416F (kinase dead) (enzyme)
